According to publication PMC11164701:

Molecular target: CpxA^QTY (water-soluble QTY-code variant of the sensor histidine kinase CpxA), his-tagged (E. coli) (UniProt P0AE82)

B1: periplasmic protein CpxP (natural protein)
chain: AEVGSGDNWHPGEELTQRSTQSHMFDGISLTEHQRQQMRDLMQQARHEQPPVNVSELETMHRLVTAENFDENAVRAQAEKMANEQIARQVEMAKVRNQMYRLLTPEQQAVLNEKHQQRMEQLRDVTQWQKSSSLKLLSSSNSRSQ
For B1, the inhibition of the autokinase activity of CpxA^QTY (1 μM, 1 mM ATP, RT, 2 min, anti-pHis western blot) by different concentrations of CpxP; CpxP excess needed for inhibition by approximately half (fold (CpxP over kinase)) was 10.
